{"source": "the supplement of paper PMC10567573", "parents": {"B1": {"name": "HESX1 (parent)", "chain": "HVPNPPSGISFPSVVDHPMPEERA"}}}
{"variants_of": "B1", "assay": "protein stability index of a GFP-peptide fusion (GPS, HEK-293T) (PSI 1-6); higher = more stable", "settings": "c terminus: a fixed tail appended"}
{"variant": "HVPNPPSGISMPSVVDHPMPEERA", "note": "[F11M]", "protein stability index": 4.88}
{"variant": "HVPNPPSGISNPSVVDHPMPEERA", "note": "[F11N]", "protein stability index": 4.54}
{"variant": "HVPNPPSGISPPSVVDHPMPEERA", "note": "[F11P]", "protein stability index": 5.21}
{"variant": "HVPNPPSGISQPSVVDHPMPEERA", "note": "[F11Q]", "protein stability index": 4.83}
{"variant": "HVPNPPSGISRPSVVDHPMPEERA", "note": "[F11R]", "protein stability index": 4.37}
{"variant": "HVPNPPSGISSPSVVDHPMPEERA", "note": "[F11S]", "protein stability index": 4.86}
{"variant": "HVPNPPSGISTPSVVDHPMPEERA", "note": "[F11T]", "protein stability index": 4.8}
{"variant": "HVPNPPSGISVPSVVDHPMPEERA", "note": "[F11V]", "protein stability index": 4.42}
{"variant": "HVPNPPSGISWPSVVDHPMPEERA", "note": "[F11W]", "protein stability index": 2.54}
{"variant": "HVPNPPSGISYPSVVDHPMPEERA", "note": "[F11Y]", "protein stability index": 4.22}
{"variant": "HVPNPPSGISFASVVDHPMPEERA", "note": "[P12A]", "protein stability index": 3.44}
{"variant": "HVPNPPSGISFCSVVDHPMPEERA", "note": "[P12C]", "protein stability index": 2.72}
{"variant": "HVPNPPSGISFDSVVDHPMPEERA", "note": "[P12D]", "protein stability index": 4.85}
{"variant": "HVPNPPSGISFESVVDHPMPEERA", "note": "[P12E]", "protein stability index": 4.57}
{"variant": "HVPNPPSGISFFSVVDHPMPEERA", "note": "[P12F]", "protein stability index": 1.75}
{"variant": "HVPNPPSGISFGSVVDHPMPEERA", "note": "[P12G]", "protein stability index": 3.82}
{"variant": "HVPNPPSGISFHSVVDHPMPEERA", "note": "[P12H]", "protein stability index": 3.38}
{"variant": "HVPNPPSGISFISVVDHPMPEERA", "note": "[P12I]", "protein stability index": 2.43}
{"variant": "HVPNPPSGISFKSVVDHPMPEERA", "note": "[P12K]", "protein stability index": 3.83}
{"variant": "HVPNPPSGISFLSVVDHPMPEERA", "note": "[P12L]", "protein stability index": 2.79}
{"variant": "HVPNPPSGISFMSVVDHPMPEERA", "note": "[P12M]", "protein stability index": 2.72}
{"variant": "HVPNPPSGISFNSVVDHPMPEERA", "note": "[P12N]", "protein stability index": 3.98}
{"variant": "HVPNPPSGISFQSVVDHPMPEERA", "note": "[P12Q]", "protein stability index": 3.92}
{"variant": "HVPNPPSGISFRSVVDHPMPEERA", "note": "[P12R]", "protein stability index": 3.42}
{"variant": "HVPNPPSGISFSSVVDHPMPEERA", "note": "[P12S]", "protein stability index": 4.01}
{"variant": "HVPNPPSGISFTSVVDHPMPEERA", "note": "[P12T]", "protein stability index": 3.78}
{"variant": "HVPNPPSGISFVSVVDHPMPEERA", "note": "[P12V]", "protein stability index": 2.99}
{"variant": "HVPNPPSGISFWSVVDHPMPEERA", "note": "[P12W]", "protein stability index": 3.85}
{"variant": "HVPNPPSGISFYSVVDHPMPEERA", "note": "[P12Y]", "protein stability index": 2.56}
{"variant": "HVPNPPSGISFPAVVDHPMPEERA", "note": "[S13A]", "protein stability index": 2.55}
{"variant": "HVPNPPSGISFPCVVDHPMPEERA", "note": "[S13C]", "protein stability index": 2.45}
{"variant": "HVPNPPSGISFPDVVDHPMPEERA", "note": "[S13D]", "protein stability index": 3.94}
{"variant": "HVPNPPSGISFPEVVDHPMPEERA", "note": "[S13E]", "protein stability index": 3.65}
{"variant": "HVPNPPSGISFPFVVDHPMPEERA", "note": "[S13F]", "protein stability index": 1.89}
{"variant": "HVPNPPSGISFPGVVDHPMPEERA", "note": "[S13G]", "protein stability index": 2.81}
{"variant": "HVPNPPSGISFPHVVDHPMPEERA", "note": "[S13H]", "protein stability index": 2.33}
{"variant": "HVPNPPSGISFPIVVDHPMPEERA", "note": "[S13I]", "protein stability index": 2.58}
{"variant": "HVPNPPSGISFPKVVDHPMPEERA", "note": "[S13K]", "protein stability index": 1.71}
{"variant": "HVPNPPSGISFPLVVDHPMPEERA", "note": "[S13L]", "protein stability index": 2.09}
{"variant": "HVPNPPSGISFPMVVDHPMPEERA", "note": "[S13M]", "protein stability index": 2.08}
{"variant": "HVPNPPSGISFPNVVDHPMPEERA", "note": "[S13N]", "protein stability index": 3.04}
{"variant": "HVPNPPSGISFPPVVDHPMPEERA", "note": "[S13P]", "protein stability index": 2.73}
{"variant": "HVPNPPSGISFPQVVDHPMPEERA", "note": "[S13Q]", "protein stability index": 2.71}
{"variant": "HVPNPPSGISFPRVVDHPMPEERA", "note": "[S13R]", "protein stability index": 2.59}
{"variant": "HVPNPPSGISFPTVVDHPMPEERA", "note": "[S13T]", "protein stability index": 2.45}
{"variant": "HVPNPPSGISFPVVVDHPMPEERA", "note": "[S13V]", "protein stability index": 2.43}
{"variant": "HVPNPPSGISFPWVVDHPMPEERA", "note": "[S13W]", "protein stability index": 2.14}
{"variant": "HVPNPPSGISFPYVVDHPMPEERA", "note": "[S13Y]", "protein stability index": 1.94}
{"variant": "HVPNPPSGISFPSAVDHPMPEERA", "note": "[V14A]", "protein stability index": 3.13}
{"variant": "HVPNPPSGISFPSCVDHPMPEERA", "note": "[V14C]", "protein stability index": 2.25}
{"variant": "HVPNPPSGISFPSDVDHPMPEERA", "note": "[V14D]", "protein stability index": 4.63}
{"variant": "HVPNPPSGISFPSEVDHPMPEERA", "note": "[V14E]", "protein stability index": 4.36}
{"variant": "HVPNPPSGISFPSFVDHPMPEERA", "note": "[V14F]", "protein stability index": 3.57}
{"variant": "HVPNPPSGISFPSGVDHPMPEERA", "note": "[V14G]", "protein stability index": 4.21}
{"variant": "HVPNPPSGISFPSHVDHPMPEERA", "note": "[V14H]", "protein stability index": 3.86}
{"variant": "HVPNPPSGISFPSIVDHPMPEERA", "note": "[V14I]", "protein stability index": 3.11}
{"variant": "HVPNPPSGISFPSKVDHPMPEERA", "note": "[V14K]", "protein stability index": 3.45}
{"variant": "HVPNPPSGISFPSLVDHPMPEERA", "note": "[V14L]", "protein stability index": 3.9}
{"variant": "HVPNPPSGISFPSMVDHPMPEERA", "note": "[V14M]", "protein stability index": 3.1}
{"variant": "HVPNPPSGISFPSNVDHPMPEERA", "note": "[V14N]", "protein stability index": 4.43}
{"variant": "HVPNPPSGISFPSPVDHPMPEERA", "note": "[V14P]", "protein stability index": 3.83}
{"variant": "HVPNPPSGISFPSQVDHPMPEERA", "note": "[V14Q]", "protein stability index": 4.01}
{"variant": "HVPNPPSGISFPSRVDHPMPEERA", "note": "[V14R]", "protein stability index": 3.75}
{"variant": "HVPNPPSGISFPSSVDHPMPEERA", "note": "[V14S]", "protein stability index": 3.52}
{"variant": "HVPNPPSGISFPSTVDHPMPEERA", "note": "[V14T]", "protein stability index": 3.49}
{"variant": "HVPNPPSGISFPSWVDHPMPEERA", "note": "[V14W]", "protein stability index": 3.59}
{"variant": "HVPNPPSGISFPSYVDHPMPEERA", "note": "[V14Y]", "protein stability index": 3.21}
{"variant": "HVPNPPSGISFPSVADHPMPEERA", "note": "[V15A]", "protein stability index": 2.65}
{"variant": "HVPNPPSGISFPSVCDHPMPEERA", "note": "[V15C]", "protein stability index": 2.04}
{"variant": "HVPNPPSGISFPSVDDHPMPEERA", "note": "[V15D]", "protein stability index": 4.55}
{"variant": "HVPNPPSGISFPSVEDHPMPEERA", "note": "[V15E]", "protein stability index": 3.93}
{"variant": "HVPNPPSGISFPSVFDHPMPEERA", "note": "[V15F]", "protein stability index": 3.28}
{"variant": "HVPNPPSGISFPSVGDHPMPEERA", "note": "[V15G]", "protein stability index": 3.85}
{"variant": "HVPNPPSGISFPSVHDHPMPEERA", "note": "[V15H]", "protein stability index": 3.23}
{"variant": "HVPNPPSGISFPSVIDHPMPEERA", "note": "[V15I]", "protein stability index": 3.16}
{"variant": "HVPNPPSGISFPSVKDHPMPEERA", "note": "[V15K]", "protein stability index": 3.2}
{"variant": "HVPNPPSGISFPSVLDHPMPEERA", "note": "[V15L]", "protein stability index": 3.61}
{"variant": "HVPNPPSGISFPSVMDHPMPEERA", "note": "[V15M]", "protein stability index": 3.49}
{"variant": "HVPNPPSGISFPSVNDHPMPEERA", "note": "[V15N]", "protein stability index": 3.22}
{"variant": "HVPNPPSGISFPSVPDHPMPEERA", "note": "[V15P]", "protein stability index": 3.06}
{"variant": "HVPNPPSGISFPSVQDHPMPEERA", "note": "[V15Q]", "protein stability index": 3.63}
{"variant": "HVPNPPSGISFPSVRDHPMPEERA", "note": "[V15R]", "protein stability index": 3.11}
{"variant": "HVPNPPSGISFPSVSDHPMPEERA", "note": "[V15S]", "protein stability index": 2.99}
{"variant": "HVPNPPSGISFPSVTDHPMPEERA", "note": "[V15T]", "protein stability index": 3.13}
{"variant": "HVPNPPSGISFPSVWDHPMPEERA", "note": "[V15W]", "protein stability index": 2.17}
{"variant": "HVPNPPSGISFPSVYDHPMPEERA", "note": "[V15Y]", "protein stability index": 3.03}
{"variant": "HVPNPPSGISFPSVVAHPMPEERA", "note": "[D16A]", "protein stability index": 2.72}
{"variant": "HVPNPPSGISFPSVVCHPMPEERA", "note": "[D16C]", "protein stability index": 2.4}
{"variant": "HVPNPPSGISFPSVVEHPMPEERA", "note": "[D16E]", "protein stability index": 2.73}
{"variant": "HVPNPPSGISFPSVVFHPMPEERA", "note": "[D16F]", "protein stability index": 1.9}
{"variant": "HVPNPPSGISFPSVVGHPMPEERA", "note": "[D16G]", "protein stability index": 2.18}
{"variant": "HVPNPPSGISFPSVVHHPMPEERA", "note": "[D16H]", "protein stability index": 2.81}
{"variant": "HVPNPPSGISFPSVVIHPMPEERA", "note": "[D16I]", "protein stability index": 1.92}
{"variant": "HVPNPPSGISFPSVVKHPMPEERA", "note": "[D16K]", "protein stability index": 2.21}
